Experimental data from PMC7836013, “Characterization of Formononetin Sulfonation in SULT1A3 Overexpressing HKE293 Cells: Involvement of Multidrug Resistance-Associated Protein 4 in Excretion of Sulfate” (Frontiers in Pharmacology, 2021).

B1: HEK-SULT1A3 cell lysate (Homo sapiens) (protein)
chain: MELIQDTSRPPLEYVKGVPLIKYFAEALGPLQSFQARPDDLLINTYPKSGTTWVSQILDMIYQGGDLEKCNRAPIYVRVPFLEVNDPGEPSGLETLKDTPPPRLIKSHLPLALLPQTLLDQKVKVVYVARNPKDVAVSYYHFHRMEKAHPEPGTWDSFLEKFMAGEVSYGSWYQHVQEWWELSRTHPVLYLFYEDMKENPKREIQKILEFVGRSLPEETMDFMVQHTSFKEMKKNPMTNYTTVPQELMDHSISPFMRKGMAGDWKTTFTVAQNERFDADYAEKMAGCSLSFRSEL
notes: expressed in transfected cells; cell lysate used
B2: Recombinant human SULT1A3 enzymes (rSULT1A3) (Homo sapiens) (protein)
chain: B1 chain
notes: purchased Sekisui XenoTech LCC (Kansas, USA)

Experiments:
[1] = substrate: COc1ccc(-c2coc3cc(O)ccc3c2=O)cc1; test: Formononetin sulfonation enzyme kinetics in HEK-SULT1A3 cell lysate; format: in vitro ADME, human; conditions: other: HEK-SULT1A3 cell lysate, Michaelis-Menten, mean ± SD (n = 3); pH 7.4
Method: (§1) Enzyme kinetic of formononetin incubated with recombinant human SULT1A3 enzyme (rSULT1A3) was evaluated. The reaction was activated after the coenzyme PAPS (which provides sulfonate group to the substrates) was added. The incubation reaction was conducted in 200 μL potassium phosphate buffer (50 mM, pH 7.4) at 37°C, containing SULT1A3 enzyme (0.1 mg/ml), formononetin (0.16–40 μM), and PAPS (a final concentration of 0.10 mM). After incubation for 120 min, the reaction was terminated by adding 100 μL ice-cold acetonitrile. Then the samples were vortexed and centrifuged at 15,000 g for 15 min. The supernatant was analyzed by HPLC for sulfate quantification. All incubations were performed in triplicate. Preliminary experiments were performed to ensure that the rates of sulfation were determined under linear conditions with respect to incubation time and protein concentration.
The sulfonation rates of formononetin at different concentrations were determined according to the sulfonation assay protocol. The kinetic model Michaelis-Menten (Eq. 1) was fitted to the data of sulfonation rates vs. formononetin concentrations. […] The intrinsic clearance (CLint) was calculated by Vmax/Km.
Quantification of formononetin sulfate was performed using Agilent 1,260 Infinity II HPLC system with a ZORBAX SB-C18 column (4.6 × 250 mm, 5 μm; Agilent). […] The samples were analyzed using a gradient of ammonium acetate (2.5 mM) in water (mobile phase A) vs. acetonitrile (mobile phase B) at a flow rate of 1.0 ml/min. […]
HEK293 cells were stably transfected with the cDNA of Human SULT1A3 enzyme through the lentiviral transduction approach ([Sun et al., 2015]), which were named as HEK-SULT1A3 cells. The transduction efficiency was evaluated by measuring the SULT1A3 protein levels in both control and transfected cells. The enzyme function of HEK-SULT1A3 cells was further determined using sulfonation assay. […] Then, in order to identify the function of HEK-SULT1A3 cells in sulfate generation, formononetin was incubated with the HEK-SULT1A3 cell lysate and enzyme kinetic was determined as described above.

[2] = substrate: COc1ccc(-c2coc3cc(O)ccc3c2=O)cc1; test: Formononetin sulfonation enzyme kinetics in recombinant human SULT1A3; format: in vitro ADME; conditions: other: rSULT1A3, Michaelis-Menten, mean ± SD (n = 3); pH 7.4
Method: as §1
The sulfonation rates of formononetin at different concentrations were determined according to the sulfonation assay protocol. The kinetic model Michaelis-Menten (Eq. 1) was fitted to the data of sulfonation rates vs. formononetin concentrations. Model selection was based on visual inspection of the Eadie-Hofstee plot. […] Model fitting and kinetic parameters evaluation were performed using GraphPad Prism software (5.3 version). V=Vmax·[S]/Km+[S] (1) where Vmax is the maximal velocity and Km is the Michaelis constant. The intrinsic clearance (CLint) was calculated by Vmax/Km.
Quantification of formononetin sulfate was performed using Agilent 1,260 Infinity II HPLC system with a ZORBAX SB-C18 column (4.6 × 250 mm, 5 μm; Agilent). The temperature of the column was set at 40 °C. The samples were analyzed using a gradient of ammonium acetate (2.5 mM) in water (mobile phase A) vs. acetonitrile (mobile phase B) at a flow rate of 1.0 ml/min. The gradient elution condition was 15% B at 0–2.0 min, 15–95% B at 2.0–12 min, 95% B at 12–15 min, and 95–15% B at 15–18 min. The waiting time was 7.0 min at 15% B in order to ensure the column pressure is back to a stable state before the next injection. […]

Row | Protein | Km [1] [µM] | Vmax [1] [pmol/min/mg] | Vmax/Km [1] [µL/min/mg] | Km [2] [µM] | Vmax [2] [pmol/min/mg] | Vmax/Km [2] [µL/min/mg]
1 | B1 | 6.17 | 13.94 | 2.26 ± 0.42 | – | – | –
2 | B2 | – | – | – | 6.01 ± 0.97 | 145.30 ± 7.91 | 24.18 ± 4.13
